Results published in patent US20160195541A1.
“And” between values parts separate entries of the source, which are not always exact repeats. Equal values may be shown once.

How the values were obtained:
[1] = target: membrane-bound human FcγRIIB on Raji cells (human) (UniProt P31994); assay: FACS on Raji cells (FACS021), constant aggregated IgG; competitor SM101 IMP 0.0156 µg/µL
[2] = target: membrane-bound human FcγRIIB on Raji cells (human) (UniProt P31994); assay: FACS on Raji cells (FACS021), constant aggregated IgG; competitor SM101 IMP 0.0625 µg/µL
[3] = target: membrane-bound human FcγRIIB on Raji cells (human) (UniProt P31994); assay: FACS on Raji cells, aggregated Beriglobin at 2.5 (µg/µL)
[4] = target: membrane-bound human FcγRIIB on Raji cells (human) (UniProt P31994); assay: FACS on Raji cells (FACS021), constant aggregated IgG; competitor SM101 Ref. Std. 0.25 µg/µL
[5] = target: membrane-bound human FcγRIIB on Raji cells (human) (UniProt P31994); assay: FACS on Raji cells (FACS021), constant aggregated IgG; competitor SM101 Ref. Std. 0.03125 µg/µL
[6] = target: membrane-bound human FcγRIIB on Raji cells (human) (UniProt P31994); assay: FACS on Raji cells (FACS007), constant aggregated IgG, anti-human IgG-PE; no competitor
[7] = target: membrane-bound human FcγRIIB on Raji cells (human) (UniProt P31994); assay: FACS on Raji cells (FACS021), constant aggregated IgG; competitor SM101 Ref. Std. 0.5 µg/µL
[8] = target: membrane-bound human FcγRIIB on Raji cells (human) (UniProt P31994); assay: FACS on Raji cells (FACS021), constant aggregated IgG; no competitor (IMP series)
[9] = target: membrane-bound human FcγRIIB on Raji cells (human) (UniProt P31994); assay: FACS on Raji cells, aggregated Beriglobin at 2.5 (µg/µL); mean of three batches
[10] = target: membrane-bound human FcγRIIB on Raji cells (human) (UniProt P31994); assay: FACS: 0.1E6 Raji cells (FcγRIIB) with 2.5 µg aggregated Beriglobin at the stated pH; 1/200 anti-human IgG(H+L)-PE; secondary antibody alone in this panel 142
[11] = target: membrane-bound human FcγRIIB on Raji cells (human) (UniProt P31994); assay: FACS: 0.1E6 Raji cells (FcγRIIB) with 2.5 µg aggregated Beriglobin at the stated pH; 1/200 anti-human IgG(H+L)-PE; secondary antibody alone in this panel 173; pH 7.2
[12] = target: membrane-bound human FcγRIIB on Raji cells (human) (UniProt P31994); assay: FACS on Raji cells (FACS007), constant aggregated IgG; competitor SM101 0.0156 µg/µL
[13] = target: membrane-bound human FcγRIIB on Raji cells (human) (UniProt P31994); assay: FACS on Raji cells, aggregated Beriglobin at 5.0 (µg/µL)
[14] = target: membrane-bound human FcγRIIB on Raji cells (human) (UniProt P31994); assay: FACS on Raji cells (FACS007), constant aggregated IgG; competitor SM101 0.03125 µg/µL
[15] = target: membrane-bound human FcγRIIB on Raji cells (human) (UniProt P31994); assay: FACS on Raji cells (FACS021), constant aggregated IgG; competitor SM101 IMP 0.125 µg/µL
[16] = target: membrane-bound human FcγRIIB on Raji cells (human) (UniProt P31994); assay: FACS on Raji cells (FACS007), constant aggregated IgG; competitor SM101 0.0625 µg/µL
[17] = target: membrane-bound human FcγRIIB on Raji cells (human) (UniProt P31994); assay: FACS on Raji cells (FACS007), constant aggregated IgG; competitor SM101 0.0078 µg/µL
[18] = target: membrane-bound human FcγRIIB on Raji cells (human) (UniProt P31994); assay: FACS on Raji cells (FACS007), constant aggregated IgG; competitor SM101 0.5 µg/µL
[19] = target: membrane-bound human FcγRIIB on Raji cells (human) (UniProt P31994); assay: FACS on Raji cells (FACS021), constant aggregated IgG; competitor SM101 Ref. Std. 0.0156 µg/µL
[20] = target: membrane-bound human FcγRIIB on Raji cells (human) (UniProt P31994); assay: FACS: 0.1E6 Raji cells (FcγRIIB) with 2.5 µg aggregated Beriglobin at the stated pH; 1/200 anti-human IgG(H+L)-PE; drawn table, secondary antibody control not subtracted; pH 6.7
[21] = target: membrane-bound human FcγRIIB on Raji cells (human) (UniProt P31994); assay: FACS on Raji cells (FACS007), constant aggregated IgG; competitor SM101 0.25 µg/µL
[22] = target: membrane-bound human FcγRIIB on Raji cells (human) (UniProt P31994); assay: FACS on Raji cells (FACS021), constant aggregated IgG; competitor SM101 IMP 0.5 µg/µL
[23] = target: membrane-bound human FcγRIIB on Raji cells (human) (UniProt P31994); assay: FACS: 0.1E6 Raji cells (FcγRIIB) with 2.5 µg aggregated Beriglobin at the stated pH; 1/200 anti-human IgG(H+L)-PE; secondary antibody alone in this panel 173; pH 6.5
[24] = target: membrane-bound human FcγRIIB on Raji cells (human) (UniProt P31994); assay: FACS on Raji cells (FACS007), constant aggregated IgG; competitor SM101 0.125 µg/µL
[25] = target: membrane-bound human FcγRIIB on Raji cells (human) (UniProt P31994); assay: FACS on Raji cells (FACS021), constant aggregated IgG; competitor SM101 Ref. Std. 0.0625 µg/µL
[26] = target: membrane-bound human FcγRIIB on Raji cells (human) (UniProt P31994); assay: FACS on Raji cells (FACS021), constant aggregated IgG; no competitor (Ref. Std. series)

UniProt P31994, sequence (P31994 43-310): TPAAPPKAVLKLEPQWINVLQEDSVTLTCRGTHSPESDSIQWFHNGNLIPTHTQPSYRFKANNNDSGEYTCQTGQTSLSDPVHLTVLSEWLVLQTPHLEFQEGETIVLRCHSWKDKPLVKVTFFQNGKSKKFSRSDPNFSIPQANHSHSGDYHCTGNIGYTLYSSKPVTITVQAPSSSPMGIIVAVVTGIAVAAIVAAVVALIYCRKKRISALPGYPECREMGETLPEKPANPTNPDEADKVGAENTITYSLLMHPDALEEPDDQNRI

aggregated human IgG (aggregated Beriglobin, aggregated fraction isolated by size exclusion chromatography) (antibody)
Median Signal [1]: 3810 | Median Signal [2]: 831 | Median MFI [3]: 1350 and 1500 and 1000 | Median Signal [4]: 269 | Median Signal [5]: 1640 | Median Signal [6]: 3880 | Median Signal [7]: 182 | Median Signal [8]: 6930 | Median MFI (mean) [9]: 1280 | Median MFI at pH 7.0 (right panel) [10]: 866 | Median MFI at pH 8.0 (right panel) [10]: 316 | Median MFI at pH 8.5 (right panel) [10]: 246 | Median MFI at pH 9.0 (right panel) [10]: 244 | Median MFI at pH 10 (right panel) [10]: 177 | Median MFI at pH 7.2 (left panel) [11]: 561 | Median Signal [12]: 2270 | Median MFI [13]: 1230 and 1140 and 960 | Median Signal [14]: 1240 | Median Signal [15]: 478 | Median Signal [16]: 466 | Median Signal [17]: 3010 | Median Signal [18]: 238 | Median Signal [19]: 2330 | Median MFI at pH 6.7 [20]: 578 | Median Signal [21]: 197 | Median Signal [22]: 195 | Median MFI at pH 6.5 (left panel) [23]: 703 | Median Signal [24]: 329 | Median Signal [25]: 921 | Median Signal [26]: 6460
